This is an account of results in US20220017618A1 (JIANGSU HENGRUI MEDICINE, published 2022).

Assay [1] has as its target T1, TIM-3 extracellular region with Flag and His tags: TIM-3-Flag-His (human).
T1 construct: The template is UniProt Q8TDQ0 (printed); also called human TIM-3; HAVCR2
Kind of assay: TIM-3 binding ELISA, hybridoma screening (clones positive for protein binding). (An ELISA detects its analyte on a solid surface through an enzyme-linked reagent.)

In assay [2] the target is T2, Full-length TIM-3 (TIM-3-full length) on TIM-3-overexpressing cells (human, UniProt Q8TDQ0 22-301).
T2 construct: It was used to construct the TIM-3-overexpressing cell lines; The template is UniProt Q8TDQ0 (printed); also called human TIM-3; HAVCR2
Kind of assay: binding to TIM-3-overexpressing cells, hybridoma screening (clones positive for cell binding).

B1: mAb-1799 (antibody, V domains shown)
VH: EVKLVESEGGLVQPGSSMKLSCTASGFTFSDYYMAWVRQVPEKGLEWVANINYDGSSTYYLDSLKSRFIISRDNAKNILYLQMNSLKSDDTATYYCARDVGYYGGNYGFAYWGQGTLVTVSA
VL: DIQMTQSPASLSASVGETVTITCRASDNIYSYLAWYQQKQGKSPQLLVYNAKTLAEGVPSRFSGSGSGTQFSLKINSLQPEDFGSYYCQQHYGSPLTFGAGTKLELK
notes: Murine antibody secreted by a hybridoma
On to B1, for which the binding result in assay [1] and in assay [2] was “binds” throughout.
